According to patent US20040175758:

Target: T1, Q2L, synthetic peptide Ac-LATLSHCIELMVKR-NH2 (L-amino acids)
T1 chain: LATLSHCIELMVKR

B1: Recombinant FLAG-tagged human GPBP (expressed in yeast, FLAG-affinity purified) (protein)
chain: MSDNQSWNSSGSEEDPETESGPPVERCGVLSKWTNYIHGWQDRWVVLKNNALSYYKSEDETEYGCRGSICLSKAVITPHDFDECRFDISVNDSVWYLRAQDPDHRQQWIDAIEQHKTESGYGSESSLRRHGSMVSLVSGASGYSATSTSSFKKGHSLREKLAEMETFRDILCRQVDTLQKYFDACADAVSKDELQRDKVVEDDEDDFPTTRSDGDFLHSTNGNKEKLFPHVTPKGINGIDFKGEAITFKATTAGILATLSHCIELMVKREDSWQKRLDKETEKKRRTEEAYKNAMTELKKKSHFGGPDYEEGPNSLINEEEFFDAVEAALDRQDKIEEQSQSEKVRLHWPTSLPSGDAFSSVGTHRFVQKPYSRSSSMSSIDLVSASDDVHRFSSQVEEMVQNHMTYSLQDVGGDANWQLVVEEGEMKVYRREVEENGIVLDPLKATHAVKGVTGHEVCNYFWNVDVRNDWETTIENFHVVETLADNAIIIYQTHKRVWPASQRDVLYLSVIRKIPALTENDPETWIVCNFSVDHDSAPLNNRCVRAKINVAMICQTLVSPPEGNQEISRDNILCKITYVANVNPGGWAPASVLRAVAKREYPKFLKRFTSYVQEKTAGKPILF
GPBP autophosphorylation in vitro: efficiently inhibited GPBP autophosphorylation
